The values below are quoted from earlier work in paper PMC3929396.

In this data set the target is CCR5 (Homo sapiens) (UniProt P51681). Nature of the data set: SPR.
UniProt P51681, sequence (P51681 whole entry): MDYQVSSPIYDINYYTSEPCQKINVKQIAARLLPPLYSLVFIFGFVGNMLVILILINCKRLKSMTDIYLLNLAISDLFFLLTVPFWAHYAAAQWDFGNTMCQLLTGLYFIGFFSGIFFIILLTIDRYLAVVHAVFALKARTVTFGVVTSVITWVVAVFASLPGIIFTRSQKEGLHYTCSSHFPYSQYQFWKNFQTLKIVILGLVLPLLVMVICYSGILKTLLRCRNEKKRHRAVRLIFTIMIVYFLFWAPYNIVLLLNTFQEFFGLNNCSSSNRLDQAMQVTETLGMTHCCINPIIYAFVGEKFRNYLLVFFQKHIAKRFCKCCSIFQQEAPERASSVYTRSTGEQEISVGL

As usually defined, the Kd is a measure of binding affinity in units of concentration. LukE (from UniProt O54081): the Kd was 39.6 nM.
